Here are results for two substances from paper doi:10.1101/2020.03.30.016147.

The target in assay [1] is ANG1-C4BP (human) (UniProt Q15389). Kind of assay: non-reducing SDS-PAGE.
For assay [2], the target named is C4BP-ANG1 (human) (UniProt P04003). Kind of assay: non-reducing SDS-PAGE.
For assay [3] the target is unchanged. Briefly: negative-stain electron microscopy.

By stoichiometry N is commonly meant the number of molecules, sites or subunits per partner or assembly. As for “ANG1-C4BP (from UniProt Q15389-1 281-498; P04003 541-597) (ligand)”, the stoichiometry N in assay [1] worked out at 7. As for “C4BP-ANG1 (from UniProt P04003 541-597; Q15389-1 281-498) (ligand)”, the stoichiometry N in assay [2] and in assay [3] was 7 throughout.
